Source: the supplement of paper PMC12764529
± gives the half width of the 95% confidence interval.

Experiment: folding stability dG unfold (combined trypsin and chymotrypsin); higher = more stable
Description: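 Folding stability of de novo designed mini-proteins (<80 aa, no Cys; designed by TrROS, TrMRF, ProteinMPNN and the joint model) was measured by cDNA display proteolysis with trypsin and chymotrypsin. Each protease was used at 11 concentrations in a threefold dilution series plus a no-protease condition. K50 was inferred by Bayesian fitting of sequencing counts, and dG unfold was derived against a sequence-predicted unfolded-state K50 (Tsuboyama et al. method). Sequences shown include variable-length N-terminal GS-type padding (SAGGSAGG...) inside a display construct carrying a PA tag. Rows were kept only if the AF2 dimer inter-PAE was >15, to exclude likely homo-oligomers.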

Row | Sequence | folding stability dG unfold [kcal/mol]
1 | SAGGSPPLVVEEELLSEKTLPEPGTGTVTLTRRTIRDPTADVEWEERFTVTTPPDGSVEVSSTRERLLSAGG [r13_917_JUSTAS] | < -1
2 | SAGGSATTTEKWTIGDPSGPPRTVDLTKLPNSDEYLITVTYPDPNHTETGLLSEEEIKKIPNAVPKSAGGSA [r15_622_JUSTAS] | < -1
3 | SAGGSAGGSAPEFVVEGSEEEAEAVFERIKAERPEEFEATDISTVSAVPPVPRYTPEGVLVSAGGSAGGSAG [r3_89_JUSTAS] | < -1
4 | SAGMPESEVIPLPDGSVVEVRRWPDSELRFVFPPGGPATVERHDTRTGTVETTPVSAADPEAAAAAVLASAG [r5_674_JUSTAS] | < -1
5 | SAGGMVTIEITDIPEDDPEKAIETAKELVEKIKKEGPPLKVKIKGNTPVFEEVAAELKKLGVETDLESAGGS [r16_450_JUSTAS] | < -1
6 | SAGGMVETTETVVEPGRIRVERRVTLPDGTEVEEVEEVPPAAGGVWEVRSRVRRGEGEEEVARREVAPSAGG [r13_728_JUSTAS] | < -1
7 | SAGGSAGGSPYKEIPFRFPENGYKVHIKKDPNGSVKIYVMGPNMRERTIPPDEPLEIEPGARLSAGGSAGGS [r12_1003_TrROS] | -0.46 ± 0.63
8 | SSAEEVARARFEAAGWDWRPLARDPVKRTVRFEVRPPDRPPRLYEVVVDPSRDTVNLEEDPATGRVVVPGSA [r9_1119_JUSTAS] | < -1
9 | NWKILEEEPNPDNGKRVIVIEHEPDPENGQMNMPIELFDPKKGKPRRIPVRMDSPETMIDEIKDQLPPDLIS [r1_156_TrROS] | < -1
10 | SAGGSAGGSVKITRTPNGYYTVKIEDPGGVPVEIPVPADDPGMTNKEAEDEVKPIAKEFKRLKSAGGSAGGS [r12_642_TrROS] | < -1
11 | SAGMPPVRVVQAPSTVYTDPSPPTLTVESVFTGEGRLSTTSSTVPAPPELADLPAGAAVSRSFTVTVLPSAG [r5_714_JUSTAS] | < -1
12 | SAGGGMDTPLYRTLPPPPVVEKREVWLSGPSKEEAEKKAKEVEEEFKKEGLEVEVKIIPAEEAEKLSSAGGS [r8_210_JUSTAS] | < -1
13 | SAGGSAGGSSMSFSFSERRDGKEYSVSVTTAVTPLTLPNGTLRTLTTPTTTVTDPSGKVLSTSSAGGSAGGS [r20_224_JUSTAS] | < -1
14 | SAGGSAPDFKIKDIKIPHRRNPNGMYRVEIKLEVPDGRKIPIEVPYNEDGKPTPEQIENAAKELAKSAGGSA [r15_233_TrROS] | < -1
15 | SAGGSAGGSAGKKKPPPKVTLVIRVKMSPEEVKKLAELFPDAKVTVTYDEETGLLTVTFDSAGGSAGGSAGG [r17_254_TrROS_Hall] | > 6
16 | SAGGSAGGSKLKIEQDPSDGFLQIQIPPGDEEVKIKFNGEEIEFPLPPGQPIWIPANNWKIEPSAGGSAGGS [r20_26_TrROS] | < -1
17 | SAGGSAGGSAGGTDKVKEKLAPGRDITVLKIDPTDSVVNVTVKSPDSDVDTVVEVDPELISAGGSAGGSAGG [r7_303_JUSTAS] | < -1
18 | SAGGSAGGSMKVELIRTEEGKVVATEFFPVPLLLPGGVPALLEGSRTIKTIPVKDPEKAKELLSAGGSAGGS [r12_915_JUSTAS] | < -1
19 | SAGGMKTIKRKSKFIKPGKGLSIDRTTELLPGGEVLEPLTFKNPKNGEKIKSFTIRIDPNGNETVENSAGGS [r16_239_JUSTAS] | < -1
20 | SPNVRPYNFKIRDPNKEIEVPVWQPPDGPPMVNIKFKDPGKEVEIPFPMDDPEELLEDFAPDGYKIELTWSA [r9_384_TrROS] | < -1
21 | SAGGSAGGSAGGEIKVRIDEYDPPSGFFRIEPPDGRTRQIPVPPGMNPEDLKGDTVTLKPSAGGSAGGSAGG [r7_296_TrROS] | < -1
22 | SAGGSAMERRTFNLPADRVSPEVLLEKLKAVGLTPTEIKPVPDGVEVVVEYDPSKVEKLEKALKEGSAGGSA [r15_161_JUSTAS] | < -1
23 | SAGGSAGGSAGKYISVDELRKNGDPDEAERVVKKIMEKFPGPKIKPIEWDKDGNHMFKIKSAGGSAGGSAGG [r11_365_TrROS] | < -1
24 | SAGGSAGGSAGPTTSSRTVKPGEVEEVKEAIEAQGVSVTVTLDPSTGTYTVGVTNPGVLGSAGGSAGGSAGG [r11_1043_JUSTAS] | < -1
25 | SAGGSAGGSAYFVRIDNGPTIPIPGMSPDEAKEQLKEYLPPPNKENLKITDVYSPDNGKPLSAGGSAGGSAG [r3_340_TrROS] | < -1
26 | SAGGSAGGSAKHDVKIDDVERMPNPYRFTITFPGNGKPIPIPFRPNMSIDEMKKEAKELAKSAGGSAGGSAG [r3_142_TrROS] | < -1
27 | SAGGSAGGSGMEPTFVPVEEIYYNPESNEISKTKSTVVIPPDGTVETFTTTEKFKKPPNASLESAGGSAGGS [r12_116_JUSTAS] | < -1
28 | SIEITFRHDNYRVPVKIDPDDPKIKIEVYPDPENGEMQPLTEEDMENFAQEIADELREQRKQQRKEGKPPSA [r9_368_TrROS] | < -1
29 | SAGGIREIADELGMPPGDKVTIDIERPRDGKPQTQEIEFPPDNVEDILDQMGIPPDQMKITKLKVDKDSAGG [r13_681_TrROS] | < -1
